Laboratory results reported in article PMC10849960.
Ends that are not written are not given here.

Experiments:
[1] = biological target: RFdiffusion de novo PTH binder (picomolar); experiment: affinity purification with mass spectrometry; binder-conjugated beads capture PTH from human plasma supplemented with PTH; recovery by LC-MS/MS of the N-terminal tryptic peptide; triplicates
[2] = biological target: RFdiffusion de novo PTH binder (picomolar); experiment: affinity purification with mass spectrometry; binder-conjugated magnetic beads capture the peptide from buffer; recovery by LC-MS/MS (tryptic N-terminal peptide for PTH, intact peptide for GCG); triplicates

Binder: SVSEIQLMHNLGKHLNSMERVEWLRKKLQDVHNF (also: fluorescently labelled, label and position not given here) [parathyroid hormone (PTH)]
- percent recovery [1]: 43%
- percent recovery [2]: 53%
